Data from article PMC9156947, “Identification of STAU1 as a regulator of HBV replication by TurboID-based proximity labeling” (iScience, 2022).

B1: N8-TAF10 (natural protein)
chain: not shown
notes: source: transfected cells (tripartite NanoLuc system), in cells
B2: N8-HBx (natural protein)
chain: MAARLCCQLDPARDVLCLRPVGAESRGRPFSGSLGTLSSPSPSAVPTDHGAHLSLRGLPVCAFSSAGPCALRFTSARRMETTVNAHQILPKVLHKRTLGLSAMSTTDLEAYFKDCLFKDWEELGEEIRLKVFVLGGCRHKLVCAPAPCNFFTSA
notes: also called X protein; wild type HBx; source: HepG2, transfected, in cells; not shown: N8 tag (tripartite NanoLuc), N-terminal, kept

How the values were obtained:
C10-STAU1 = biological target: T1, C10-STAU1 (UniProt O95793 1-577); assay: split reporter (BiFC, NanoBiT); tripartite Nanoluc luciferase: C10-tagged and N8-tagged proteins co-transfected with a plasmid expressing Nano1-7 into HepG2 cells; luciferase activity measured 48 h post-transfection; settings: partners not purified
T1 construct: also called wild type STAU1; source: HepG2, transfected, in cells; not shown: C10 tag (tripartite NanoLuc), N-terminal, kept
T1 sequence (looked up): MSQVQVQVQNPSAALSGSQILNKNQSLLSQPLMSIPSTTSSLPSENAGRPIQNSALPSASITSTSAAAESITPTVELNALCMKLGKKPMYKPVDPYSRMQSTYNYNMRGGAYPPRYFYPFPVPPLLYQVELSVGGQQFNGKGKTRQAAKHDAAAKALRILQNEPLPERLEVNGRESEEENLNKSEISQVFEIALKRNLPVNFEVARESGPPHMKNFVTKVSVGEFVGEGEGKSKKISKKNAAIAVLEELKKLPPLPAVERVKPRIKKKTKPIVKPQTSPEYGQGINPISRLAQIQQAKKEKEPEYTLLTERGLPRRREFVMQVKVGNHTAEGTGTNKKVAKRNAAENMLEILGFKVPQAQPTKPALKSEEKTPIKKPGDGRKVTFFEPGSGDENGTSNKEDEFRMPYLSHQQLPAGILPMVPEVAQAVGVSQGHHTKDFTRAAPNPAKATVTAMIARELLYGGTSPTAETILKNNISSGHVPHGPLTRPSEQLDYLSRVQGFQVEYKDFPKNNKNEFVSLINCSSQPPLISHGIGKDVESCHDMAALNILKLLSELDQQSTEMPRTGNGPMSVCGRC

C10-DDB1 = biological target: T2, C10-DDB1 (UniProt Q16531 1-1140); assay: as above; settings: partners not purified
T2 construct: also called wild type DDB1; source: HepG2, transfected, in cells; not shown: C10 tag (tripartite NanoLuc), N-terminal, kept
T2 sequence (Q16531 whole entry): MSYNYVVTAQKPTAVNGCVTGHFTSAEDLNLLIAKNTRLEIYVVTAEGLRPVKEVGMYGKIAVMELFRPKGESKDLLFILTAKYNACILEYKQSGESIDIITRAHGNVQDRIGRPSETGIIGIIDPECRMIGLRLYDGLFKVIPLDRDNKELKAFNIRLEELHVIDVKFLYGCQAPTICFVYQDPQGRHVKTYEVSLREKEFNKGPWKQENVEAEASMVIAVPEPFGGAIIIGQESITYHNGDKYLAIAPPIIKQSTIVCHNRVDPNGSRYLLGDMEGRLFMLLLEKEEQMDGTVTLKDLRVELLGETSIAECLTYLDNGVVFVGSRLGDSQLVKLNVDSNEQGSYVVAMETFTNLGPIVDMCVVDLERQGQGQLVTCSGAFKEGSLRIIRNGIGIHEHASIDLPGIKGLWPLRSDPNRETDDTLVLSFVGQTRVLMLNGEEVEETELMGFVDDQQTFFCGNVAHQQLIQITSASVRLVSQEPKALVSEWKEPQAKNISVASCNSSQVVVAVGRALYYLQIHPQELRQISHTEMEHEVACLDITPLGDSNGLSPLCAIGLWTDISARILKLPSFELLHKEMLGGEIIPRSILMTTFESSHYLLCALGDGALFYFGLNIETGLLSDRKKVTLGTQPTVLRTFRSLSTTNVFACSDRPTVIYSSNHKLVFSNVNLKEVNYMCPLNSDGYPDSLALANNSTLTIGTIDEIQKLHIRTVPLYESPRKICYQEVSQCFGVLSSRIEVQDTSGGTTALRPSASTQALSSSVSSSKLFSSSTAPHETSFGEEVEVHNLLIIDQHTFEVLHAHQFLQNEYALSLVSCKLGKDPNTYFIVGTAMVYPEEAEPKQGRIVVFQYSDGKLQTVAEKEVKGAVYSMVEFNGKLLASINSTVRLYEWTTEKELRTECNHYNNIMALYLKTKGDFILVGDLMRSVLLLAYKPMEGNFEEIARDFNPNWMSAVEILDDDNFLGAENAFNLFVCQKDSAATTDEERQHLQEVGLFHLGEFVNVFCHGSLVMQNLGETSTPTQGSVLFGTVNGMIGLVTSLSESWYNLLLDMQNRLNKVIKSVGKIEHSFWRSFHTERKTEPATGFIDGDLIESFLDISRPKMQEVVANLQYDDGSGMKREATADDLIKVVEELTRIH

| Binder | fold luminescence over the control (C10-STAU1) [fold] | fold luminescence over the controls (C10-STAU1) [fold] | fold luminescence over the controls (C10-DDB1) [fold] |
| --- | --- | --- | --- |
| B1 | > 20 |  |  |
| B2 |  | 28 | ~200 |
